Laboratory results published in US20200206304A1, “METHODS AND COMPOSITIONS FOR EFFICIENT DELIVERY THROUGH MULTIPLE BIO BARRIERS” (Cedars-Sinai Medical Center, priority 2017, published 2020).
Square brackets hold non-standard residues; d marks the D form. Ends that are not written are not given here.

Experiments:
[1] = molecular target: amyloid β (Aβ) plaques (UniProt P05067); assay: in vivo labelling of Aβ plaques after i.v. injection into APPswe/PS1ΔE9 AD mice, injected dose 8X (0.55 µmol/Kg)
[2] = molecular target: amyloid β (Aβ) plaques (UniProt P05067); assay: in vivo labelling of Aβ plaques after i.v. injection into APPswe/PS1ΔE9 AD mice, injected dose 2X (0.137 µmol/Kg)
[3] = molecular target: amyloid β (Aβ) plaques (UniProt P05067); assay: in vivo labelling of Aβ plaques after i.v. injection into APPswe/PS1ΔE9 AD mice, injected dose 4X (0.274 µmol/Kg)
[4] = molecular target: amyloid β (Aβ) plaques (UniProt P05067); assay: in vivo labelling of Aβ plaques after i.v. injection into APPswe/PS1ΔE9 AD mice, injected dose 6X (0.411 µmol/Kg)
[5] = molecular target: amyloid β (Aβ) plaques (UniProt P05067); assay: in vivo labelling of Aβ plaques after i.v. injection of rhodamine-labelled conjugate into APPswe/PS1ΔE9 AD mice, dose 8X; fluorescence microscopy of brain sections

Chain of amyloid β (Aβ) plaques (P05067 672-713): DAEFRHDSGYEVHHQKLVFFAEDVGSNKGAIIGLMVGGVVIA

Percentage of total plaques labeled by the reagents [1]: 21.1%
Percentage of total plaques labeled by the reagents [2]: 0%
Percentage of total plaques labeled by the reagents [3]: 0%
Percentage of total plaques labeled by the reagents [4]: 0%
Percentage of total plaques labeled by the reagents [5]: 21.1%
B1: PMLA/LLL/D3/rhodamine (peptide)
peptide 1: [dR][dP][dR][dT][dR][dL][dH][dT][dH][dR][dN][dR]C
peptide 2: Leu-Leu-Leu
modifications: not fully specified (some residues, N-terminus); also: PMLA scaffold carrying LLL (amide-linked to pendant carboxylates), D3 peptide and rhodamine, D3 Cys thioether to maleimide-PEG3400 on PMLA
